{"source": "the DeepSol protein solubility set"}
{"experiment": "soluble on expression in E. coli; label from the status in PepcDB or PDB records"}
{"sequence": "MPISRYYDVKRDEKGERYLEPYVTGFLLLRLPLLNKGTAFTEEERRLLGLEGLLPPHVHTLEEQKERVYRRYRLIQSPLEKHIYLRHLQDRNEVLFYALVVDHLEEMLPILYTPTVGEAVREFSHIYRYPRGFTASTKNIDRIDEALQNVPLEDVRLIVATDSSAILGIGDQGYGGMAISIGKLTLYTAAGGVGPDKTLPVELDVGTDREDLLKDPLYLGVRHRRLRGEEYFRFLDRFVEAVRRRYPKALIQWEDFAKETAFQVLERYRKVIPSFNDDIQGTGAVALAGVLSACRLKGERLSDQVVVVYGAGAGGIGVAWALVEGMKREGLSEEEAKARVLVLDSKGLLVEGRSMEDYKRPYAQRPERLWGWRFAGEYPNLLETITNARATVLLGLSGQAGSFTEPVVRAMLANTPRPVIFPLSNPTSATEALPDDLVYWTEGRALVAAGSPFPPVGFKGRTVPIGQGNNAFVFPGLGLGAVLSRAREVTDGMVLEAAYALYDYTREHFPERIYPPVGRLREVSPYVAARVMQRALEEGVAEEARVQGLTLEALLDFVKSRFWEPRYLPYRPAPVI", "soluble on expression in E. coli": "soluble"}
{"sequence": "MTKKALSAVILAAGKGTRMYSDLPKVLHTIAGKPMVKHVIDTAHQLGSENIHLIYGHGGDLMRTHLANEQVNWVLQTEQLGTAHAVQQAAPFFKDNENIVVLYGDAPLITKETLEKLIEAKPENGIALLTVNLDNPTGYGRIIRENGNVVAIVEQKDANAEQLNIKEVNTGVMVSDGASFKKWLARVGNNNAQGEYYLTDLIALANQDNCQVVAVQATDVMEVEGANNRLQLAALERYFQNKQASKLLLEGVMIYDPARFDLRGTLEHGKDVEIDVNVIIEGNVKLGDRVKIGTGCVLKNVVIGNDVEIKPYSVLEDSIVGEKAAIGPFSRLRPGAELAAETHVGNFVEIKKSTVGKGSKVNHLTYVGDSEIGSNCNIGAGVITCNYDGANKFKTIIGDDVFVGSDTQLVAPVKVANGATIGAGTTITRDVGENELVITRVAQRHIQGWQRPIKKK", "soluble on expression in E. coli": "soluble"}
{"sequence": "EKAQLIGPEDADITFVTWGSQKGPILDVIEDLKQDDITANLLYLKMFSPFPTEFVKSILSKAHLVIDVESNFTAQAAQMIKLYTGIEIENKILKYNGRHMTEDEILNSAKNILNK", "soluble on expression in E. coli": "not soluble"}
{"sequence": "MVCSGAPVALIPTSSGAIMLDYPSMRAVALVARTGSFEKAAQVLCVTPSAVSQRIKQLEERLGVVLIVRGNPCVATEKGEWLCRHMDHVGMLESELFRQLPALTEAGDAQERVTLNIATNADSLGTWFLDAVSKFTGGSDYLVNIAVDDQDHTVEWLRGGRVLAAVTAHDKPVQGCRVTPLGVLRYHATASPDFMARHFADGVTPAALARAPGLTFNQKDRLQASWIRTALGEDVSYPTHWLPSTDGFVKASLAGMGWGLNPVQLVAEHLAAGRLVELMPGTPLDIPLYWQVNRLAAERLAGLTANMVGTARVVLMPVG", "soluble on expression in E. coli": "soluble"}
{"sequence": "ADVYDIGRGAVMYVAGGKVSWAPRGGNEVKFEPVPKELKLVANRLHTSFPPHHVVDMSKFTFITPGSGVSMRVEYQYGCLPADTVPEGNCWWRLLDSLPPEVQYKEIRHANQFGYQTKHGVPGKYLQRRLQVNGLRAVTDTHGPIVIQYFSVKESWIRHLKLVEEPSLPGFEDLLRIRVEPNTSPLAGKDEKIFRFGSHKWYG", "soluble on expression in E. coli": "soluble"}
{"sequence": "MSTYQAATIVAAPNEFRVPFPPFVQISKVQFQREAGSRLLAASGWDGTCRVYEVGKLGDISEKLVFTHGKPLLTCTFAGYNKVAFGGVDHNVKLADIETGNGTQLGSHALAVRCMEFNPMSSLIVSGGWDSSVKLWDARSYGNGAIESVNVSSSVYAMDVLKHTILVGTKDRKIFMYDSRKLREPLQVRDSPLKYQTRAVQFFPTGEAFVVSSIEGRVAVEYVDQSGEEMMKRKYAFKCHREKDTDGTELIHPVHTVAFHPKYGTFATGGADGIVNIWDPFNRKRIIQLHKFETSISSLSFNEDGSQLAIATSYQYEKEIDPSPLPNNSITIRHITDPESRPK", "soluble on expression in E. coli": "not soluble"}
{"sequence": "MVFCGDDVATGVRDAITYCYRCKGRKVTLSDHEADDDNKPIGDFDYDHEVVVFEIRSRAMEKLRKKRRTGMEGLTYKFVKEYDIENEFCSVRSSFSECCMSDISIEGYMTAKTEFSRSSSLKGLELENQWKMHYVNEIKKGSVIQEFCHCQGWPFGLGRKAALLPPLPKSPAESWSWRKPTRVTPVPFV", "soluble on expression in E. coli": "soluble"}
{"sequence": "MSASVSLTTPVSVSCLINDVNPSVKAKKEDATAVTTTQAPKIAEAIHRSTPTLADNVLYDSTSYTHGVTTGSTNVPISSGQRPQQADYSLALLAKDVYAPTSGNLNGFVRLSDERLLAAGIDPTALSDSASGFLAGIYSDNQQYVLSFAGTNDRHDWLSNIRQAVGYEDVQYNEAVALGKTAKMAFGDALVITGHSLGGGLAATAALATGTFAVTFNAAGVAKNTLKRLGMDSAKARRSAENGGIRSYSEKYDLLTGIQELTSLIPNAVGHKIVLANSDKLTGVDDWLPHKHLERRISAHSIEKVLSSMSEQQPWERRYV", "soluble on expression in E. coli": "not soluble"}
{"sequence": "MGHHHHHHSHMARLILERFLQEHEETPPSKSIINSMLRDPSQIPDGVLANQVYQCIVNDCCYGPLVDCIKHAIGHEHEVLLRDLLLEKNLSFLDEDQLRAKGYDKTPDFILQVPVAVEGHIIHWIESKASFGDECSHHAYLHDQFWSYWNRFGPGLVIYWYGFIQELDCNRERGILLKACFPTNIVTLCHSIA", "soluble on expression in E. coli": "not soluble"}
{"sequence": "MDYYYYPFVSDPYAVYTPNVWQSQGADELYLYSMPAIERQPQPVLSNAPAQTSIVLFKELTGYPNYGNPSGNADILYTGNRGTWTFDIQPILLIPGNLTAQLVIRGVLDDHTNVPVANYSARITINGTVVHTGRLPLVHGSPAGQRFNNWRLLTFNVPNLRRNNTVVIQNTSNTGPNDWIAFDWMELRLQPR", "soluble on expression in E. coli": "not soluble"}
{"sequence": "RSVAYDLIFGNKNTTKYYAQFVKEHKTHLYEQIKQINNDEFRFVEKTKRHNLG", "soluble on expression in E. coli": "not soluble"}
{"sequence": "MEALKRKIEEEGVVLSDQVLKVDSFLNHQIDPLLMQRIGDEFASRFAKDGITKIVTIESSGIAPAVMTGLKLGVPVVFARKHKSLTLTDNLLTASVYSFTKQTESQIAVSGTHLSDQDHVLIIDDFLANGQAAHGLVSIVKQAGASIAGIGIVIEKSFQPGRDELVKLGYRVESLARIQSLEEGKVSFVQEVHS", "soluble on expression in E. coli": "soluble"}
{"sequence": "MVEEAERIALISHTAPDGDSVGSSIGFAAMLREKGKSHISVIVPDDIPQYLYCIPGANKVIVHETHPSEAEKALAEADLVFCMDFNAPHRVAGLQSALESSSAPKVLIDHHLYPADIFTLSFSYPPLSSTSELVLRLAKAIGMESYLTQDAATALMTGILTDTGVFSYSSSDPDLYLLVADLMRAGADKDTIIRNTFQQNSEGKMRMQGYVLYEKMTLLPEMGVAYFTLSAEELVRFHNRTGDTDGLANLPLDIAGIEAVCFLREDKNQIKLSFRSTGNYPVNTLAENFGGGGHKNAAGGEFQGSLQEATEKLLKIWKDFNPKNYNNKNQQLEHHHHHH", "soluble on expression in E. coli": "soluble"}
{"sequence": "PSGTIVGLYTHTDFAKKLSVDIELNYISMGSLFTMNKDTPEQRDYKVSLGYISLPVNLNYCVYKHIHVQVGIQTLALLTAVTEQKYQNVVTKGKNINDFHAIDAGPTIGCYYQFEKGLQLGVRYYRGIQNVVKENMVLYNTGIQFLLTYQF", "soluble on expression in E. coli": "not soluble"}
{"sequence": "MIGDGKLLASAAWDAQSLNELKAKAGQDPAANIRPVARQVEGMFVQMMLKSMREALPKDGLFSSDQTRLYTSMYDQQIAQQMTAGKGLGLADMMVKQMTSGQTMPADDAPQVPLKFSLETVNSYQNQALTQLVRKAIPKTPDSSDAPLSGDSKDFLARLSLPARLASEQSGVPHHLILAQAALESGWGQRQILRENGEPSYNVFGVKATASWKGPVTEITTTEYENGEAKKVKAKFRVYSSYLEALSDYVALLTRNPRYAAVTTAATAEQGAVALQNAGYATDPNYARKLTSMIQQLKAMSEKVSKTYSANLDNLF", "soluble on expression in E. coli": "not soluble"}
{"sequence": "NKMAMIDLAKLFLASKITAIEFSERICVERRRLYGVKDLSPNILNCGEELFMAAERFEPDADRANYEIDDNGLKVEVRSILEKFKLHHHHH", "soluble on expression in E. coli": "soluble"}
{"sequence": "MSLGRDKDLNILCWEGYNSAQVLDPFRKLTGATVKAESSTNDPTMINRLRAGETNVWDLINVNNPWARKILWPQNLIKPLDRAEFEPFFDKMLPEFKAPYRWAMSDDGKDLLGMAQRFGPFCFVVDTDKISRQTAEDQGWDLWNDKALAGRYGIQESDDWNVFGLFLIAGINPFKTHTEAELAKFEETAKAVFKGAKVVGDMASMNQALVSGEIDLYLSGGTYTVSPARAEGLGNLRGITPLRGPIDGKGGVMWVEITSQVNNPQLSPLAGQFLKHVQTPQVAHTVAFAEGTFNPIAQMGNPDCFKLFSKAELDAIQWDSLAEEMARSVAYDIVPDYDKALDLMTAAKRVRGEGHHHHHH", "soluble on expression in E. coli": "soluble"}
